Reference: the supplement of paper PMC10567573

B1: ZNF232 (parent)
chain: FPKSEQVYLHFLSVVTEDGPEPKD
B2: SPRY1 (parent)
chain: WIHRPGCRCKNSNTVYCKLESCPS

Variants of: B1
Experiment: protein stability index of a GFP-peptide fusion (GPS, HEK-293T) (PSI 1-6); higher = more stable
Details: c terminus: a fixed tail appended
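Note: lentivirally expressed fusions sorted by FACS into six bins by GFP to DsRed ratio, PSI derived from sequencing read proportions per bin multiplied by bin number.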

Protein stability index: each site, then its substitutions
H10: Q 2.36 | R 4.1 | S 1.95 | V 1.94
F11: A 2.49 | C 1.76 | D 3.73 | E 4.55 | G 3.61 | H 2.99 | K 3.17 | L 2.41 | M 2.06 | N 3.18 | P 3.74 | R 2.83 | S 2.65 | T 2.27 | W 2.08 | Y 2.29
L12: C 2.07 | D 3.67 | E 3.96 | F 1.73 | G 3.24 | H 3.49 | I 1.97 | K 3.6 | M 3.84 | N 3.61 | P 2.34 | Q 3.99 | S 2.75 | T 2.58 | V 2.48 | W 1.21
S13: A 1.89 | C 2.31 | D 3.54 | E 2.98 | F 1.66 | G 1.5 | H 1.81 | K 2.48 | L 1.76 | M 1.96 | N 2.46 | P 2.14 | Q 1.53 | R 1.98 | T 1.78 | Y 3.15
V14: C 1.92 | D 3.72 | E 3 | F 2.18 | G 2.68 | H 2.34 | I 3.05 | K 2.29 | L 2.86 | M 2.37 | N 3.09 | P 3.14 | Q 2.82 | R 2.45 | S 1.97 | T 2.23 | W 1.29 | Y 3.58
V15: C 1.72 | D 3.45 | E 3.1 | F 2.44 | H 2.4 | I 1.89 | K 2.27 | M 2.88 | N 2.36 | P 2.08 | R 3.32 | S 2.47 | T 2.1 | W 1.47 | Y 2.43
T16: A 2.31 | C 2.47 | D 2.26 | E 2.38 | F 1.63 | H 2.68 | I 2.19 | K 2.77 | L 1.85 | N 2.42 | P 3.37 | Q 1.87 | S 2.31 | V 1.81 | W 1.89 | Y 2.07
E17: A 3.57 | D 2.62 | F 2.38 | I 1.77 | K 2 | L 1.56 | M 2.51 | N 1.66 | P 1.99 | Q 1.8 | R 1.88 | S 1.65 | T 2.08 | W 4.03 | Y 2.15
D18: A 1.73 | F 3.47 | G 2.32 | H 2.46 | K 1.58 | L 2.61 | M 1.01 | N 1.71 | P 1.94 | Q 1.77 | R 1.47 | S 1.33 | T 1.76 | V 1.23 | Y 1.24
G19: A 2.33 | C 1.95 | D 2.06 | E 2.43 | F 1.54 | H 2.32 | I 1.9 | K 2.71 | L 1.93 | M 2.05 | N 2.69 | P 2.21 | Q 2.49 | R 2.45 | S 2.27 | T 2.34 | V 1.5 | W 1.47 | Y 1.33
P20: A 3.42 | C 1.93 | D 2.53 | F 1.44 | G 2.5 | H 2.28 | I 2.25 | K 2.47 | L 1.71 | M 2.11 | R 2.15 | T 2.72 | V 1.76
E21: A 2.71 | C 1.91 | D 2.02 | F 3.2 | H 2.02 | I 2.33 | K 2.07 | L 1.91 | M 2.04 | N 2.12 | P 1.91 | Q 1.71 | R 1.79 | S 2.26 | T 2.06 | V 2.97 | W 1.7 | Y 1.68
P22: A 1.85 | C 1.34 | D 3.31 | E 1.94 | F 1.67 | G 1.75 | H 2.39 | I 2 | K 1.67 | L 2.63 | N 2.37 | Q 1.75 | R 1.9 | S 1.81 | T 2 | W 1.83 | Y 1.25
K23: A 2.66 | C 2.07 | D 1.82 | E 2.13 | F 1.63 | G 1.83 | H 1.84 | I 2.06 | M 2.22 | N 1.69 | S 1.91 | T 1.69 | V 2.14 | W 1.7 | Y 1.39
D24: A 1.8 | C 1.36 | E 2.12 | F 1.99 | G 3.76 | H 1.35 | I 2.14 | L 2.94 | M 1.56 | N 1.82 | P 2.16 | Q 2.95 | R 1.83 | S 1.71 | T 1.75 | V 2.37 | W 1.35 | Y 2.58

Variants of: B2
Experiment: as above
Details: c terminus: a fixed tail appended

Protein stability index, by site and new letter:
W1: A 3.52 | C 3.78 | D 4.38 | E 3.75 | F 2.04 | G 3.65 | H 3.72 | I 3 | K 3.97 | L 3.54 | M 2.88 | N 4.04 | P 3.5 | Q 3.23 | R 3.79 | S 4.09 | T 3.45 | V 3.03 | Y 2.13
I2: A 2.68 | C 3.23 | D 3.9 | E 3.89 | F 1.61 | G 2.73 | H 2.77 | K 3.39 | L 2.34 | M 2.4 | N 3.22 | P 3.62 | Q 2.82 | R 2.46 | S 3.27 | T 3.13 | V 2.76 | W 2.12 | Y 2.23
H3: A 2.75 | C 1.48 | D 3.37 | E 3.78 | F 1.87 | G 2.76 | I 1.74 | K 2.13 | L 2.31 | M 2.52 | N 2.4 | P 2.79 | Q 2.5 | R 2.44 | S 3.16 | T 2.71 | V 1.72 | W 1.73 | Y 1.59
R4: A 2.51 | C 2.77 | D 3.73 | E 3.48 | F 2.72 | G 3.95 | H 3.3 | I 2.82 | K 2.34 | L 3.06 | M 2.85 | N 3.43 | P 3.03 | Q 4.23 | S 3.07 | T 2.67 | V 3.11 | W 1.97 | Y 3.18
P5: A 2.02 | C 2.02 | D 3.42 | E 3.08 | F 1.79 | G 1.85 | H 1.91 | I 2.11 | K 2.21 | L 2.77 | M 2.15 | N 2.39 | Q 2.38 | R 3.01 | S 2.27 | T 2.37 | V 2.65 | W 1.82 | Y 3.19
G6: A 2.15 | C 2 | D 2.62 | E 3.01 | F 1.7 | H 2.06 | I 3.08 | K 2.32
